Assays:
[1] = target: Peptide-7 (tau 195-214, pS199/pS202); assay: SPR
[2] = target: paired-helical filament tau (PHF-tau) from AD brain (human (endogenous in AD patient cortex)) (UniProt P10636); assay: SPR
Chain of paired-helical filament tau (PHF-tau) from AD brain (human (endogenous in AD patient cortex)) (P10636 whole entry): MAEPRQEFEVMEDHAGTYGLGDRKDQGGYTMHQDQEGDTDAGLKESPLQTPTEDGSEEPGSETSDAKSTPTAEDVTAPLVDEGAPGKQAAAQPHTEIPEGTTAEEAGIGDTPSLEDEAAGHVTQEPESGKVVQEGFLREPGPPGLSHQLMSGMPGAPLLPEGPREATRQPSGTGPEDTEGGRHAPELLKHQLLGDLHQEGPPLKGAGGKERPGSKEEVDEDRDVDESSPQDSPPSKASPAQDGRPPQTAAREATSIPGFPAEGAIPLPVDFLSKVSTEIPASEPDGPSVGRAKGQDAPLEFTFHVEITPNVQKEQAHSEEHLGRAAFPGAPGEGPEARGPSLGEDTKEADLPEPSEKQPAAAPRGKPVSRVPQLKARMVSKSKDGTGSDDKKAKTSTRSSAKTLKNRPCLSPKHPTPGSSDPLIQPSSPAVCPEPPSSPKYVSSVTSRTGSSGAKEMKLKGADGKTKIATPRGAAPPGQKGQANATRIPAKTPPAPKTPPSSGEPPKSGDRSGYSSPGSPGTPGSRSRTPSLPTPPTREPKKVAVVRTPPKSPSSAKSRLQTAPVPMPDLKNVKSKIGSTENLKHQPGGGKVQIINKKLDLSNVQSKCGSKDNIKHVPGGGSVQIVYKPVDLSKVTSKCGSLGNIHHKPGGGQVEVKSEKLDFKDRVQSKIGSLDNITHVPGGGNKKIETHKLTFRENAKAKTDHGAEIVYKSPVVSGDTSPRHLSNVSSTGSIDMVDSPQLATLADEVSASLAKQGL

AT8 Fab (from UniProt P01857 1-103; P01834 1-107)
Kd [1]: > 1000 µM | Kd [2]: 0.021 µM

— article PMC5067699
